Biological target: T1, CD20 peptide on HLA-A*02:01 (human)
T1 peptide: SLFLGILSV
Test: multimer staining

binding result: recognises
B1: TCR 79B2 (TCR, V domains shown)
Valpha: GEQVEQLPSILRVQEGSSASINCSYEDSASNYFPWYKQEPGENPKLIIDIRSNMERKQIQELIVLLDKKAKRFSLHITDTQPGDSAMYFCAASANTGANTGKLTFGHGTILRVHP
Vbeta: ETAVFQTPNYHVTQVGNEVSFNCKQTLGHDTMYWYKQDSKKLLKIMFSYNNKQLIVNETVPRRFSPQSSDKAHLNLRIKSVEPEDSAVYLCASSWGLGSYEQYFGPGTRLTVL

From US20230312672A1 (published 2023)
